Residue numbers refer to the chain shown, from its start.
Tests used:
Conditions in all cases: protein: recombinant; tags: N-terminal His6-MBP-TEV-Gly5; chain copies: 2; label: 5' TAMRA on strand 1; blunt
[1] = molecular target: T1, HMGE (His6-MBP-TEV-Gly5-EsaR wild type) (Pantoea stewartii subsp. stewartii, UniProt P54293 1-249); test: fluorescence anisotropy; 1 uM AHL; 150 mM NaCl, 6 mM HEPES, 17.5 mM Tris, 3% glycerol, pH 7.6, 25 C, 20 min; 3 nM T-esabox, 0-100 nM protein
T1 sequence: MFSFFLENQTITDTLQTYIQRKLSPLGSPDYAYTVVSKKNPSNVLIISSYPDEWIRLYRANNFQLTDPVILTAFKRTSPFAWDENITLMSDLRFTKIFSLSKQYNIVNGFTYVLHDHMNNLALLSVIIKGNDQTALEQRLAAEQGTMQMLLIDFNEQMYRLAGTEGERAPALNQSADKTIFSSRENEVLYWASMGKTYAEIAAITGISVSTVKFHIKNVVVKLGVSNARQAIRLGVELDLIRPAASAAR

[2] = molecular target: T2, HMGE F94Y (Pantoea stewartii subsp. stewartii, UniProt P54293 1-249, F94Y); test: as above
T2 sequence: T1 sequence with F94Y

[3] = molecular target: T3, HMGE A32V (Pantoea stewartii subsp. stewartii, UniProt P54293 1-249, A32V); test: as above
T3 sequence: T1 sequence with A32V

[4] = molecular target: T4, HMGE D83E (Pantoea stewartii subsp. stewartii, UniProt P54293 1-249, D83E); test: as above
T4 sequence: T1 sequence with D83E

[5] = molecular target: T1, HMGE (His6-MBP-TEV-Gly5-EsaR wild type); test: fluorescence anisotropy; no AHL; 150 mM NaCl, 6 mM HEPES, 17.5 mM Tris, 3% glycerol, pH 7.6, 25 C, 20 min; 3 nM T-esabox, 0-100 nM protein
[6] = molecular target: T2, HMGE F94Y; test: as above
[7] = molecular target: T3, HMGE A32V; test: as above
[8] = molecular target: T4, HMGE D83E; test: as above

B1: T-esabox (PesaR28 TAMRA/PesaR28R) (dsDNA)
DNA 1: TCTTGCCTGTACTATAGTGCAGGTTAAG
DNA 2: CTTAACCTGCACTATAGTACAGGCAAGA
- Kd [1]: 6.19 ± 1.31 nM
- Kd [2]: 2.65 ± 1.03 nM
- Kd [3]: 2.33 ± 1.06 nM
- Kd [4]: 2.91 ± 0.58 nM
- Kd [5]: 3.11 ± 0.33 nM
- Kd [6]: 3.26 ± 0.93 nM
- Kd [7]: 2.18 ± 0.73 nM
- Kd [8]: 4.01 ± 1.13 nM

Source: PMC4169570, “Acyl-Homoserine Lactone Recognition and Response Hindering the Quorum-Sensing Regulator EsaR”
